Laboratory results: patent US20230060574A1 (Ablynx, published 2023)

Experiments:
Assay in all cases: SPR ProteOn, SA immobilized, pH 7.4
[1] = target: T1, mouse serum albumin (Albumin Bioscience 2601) (mouse, UniProt P07724 25-608)
T1 construct: Bought protein; also called mouse SA

[2] = target: T2, dog serum albumin (Abcam 119814) (dog, UniProt P49822 25-608)
T2 construct: Bought protein; also called dog SA

[3] = target: T3, human serum albumin (Sigma-Aldrich A3782) (human, UniProt P02768 25-609)
T3 construct: Bought protein; also called HSA; human SA

[4] = target: T4, cynomolgus monkey serum albumin (generated in-house) (cynomolgus monkey, UniProt A2V9Z4 25-608, limits assumed)
T4 construct: also called cyno SA

[5] = target: T5, guinea pig serum albumin (Gentaur GPSA62) (guinea pig)
T5 construct: Bought protein; also called guinea pig SA

[6] = target: T6, pig serum albumin (Sigma-Aldrich A4414) (pig, UniProt P08835 25-607)
T6 construct: Bought protein; also called pig SA

[7] = target: T7, rat serum albumin (Sigma-Aldrich A4538) (rat, UniProt P02770 25-608)
T7 construct: Bought protein; also called rat SA

koff [1]: 0.00025 s⁻¹
kon [1]: 910000 M⁻¹ s⁻¹
koff [2]: 0.00084 s⁻¹
kon [2]: 720000 M⁻¹ s⁻¹
koff [3]: 0.00027 s⁻¹
kon [3]: 610000 M⁻¹ s⁻¹
koff [4]: 0.00023 s⁻¹
kon [4]: 520000 M⁻¹ s⁻¹
Kd [5]: 0.3 nM
koff [5]: 0.00031 s⁻¹
kon [5]: 1e+06 M⁻¹ s⁻¹
koff [6]: 0.0046 s⁻¹
kon [6]: 100000 M⁻¹ s⁻¹
koff [7]: 8e-05 s⁻¹
kon [7]: 1.2e+06 M⁻¹ s⁻¹
B1: serum albumin binder of SEQ ID NO:19 (invention), T023500029 (VHH)
VHH: EVQLVESGGGVVQPGDSLRLSCAASGGTFSTYVMGWFRQAPGKEREFVSAISQNSIHTYYANSVKGRFTISRDNSKNTVYLQLNSLRPEDTALYYCAASRFTSWYTADYEYDYWGQGTLVTVSS
notes: No tag is mentioned there
